Tests used:
[1] = molecular target: S-Trimer (ectodomain of wild-type SARS-CoV-2 Spike protein fused to Trimer-Tag) (SARS-CoV-2 | human) (UniProt P0DTC2); test: negative-stain electron microscopy; S-Trimer 25 μg/mL in PBS adjusted to pH 5.5; 1% uranyl formate pH 4.0; FEI Tecnai spirit, 120 KeV
[2] = molecular target: ACE2-Fc (soluble human ACE2 fused to human IgG Fc) (human) (UniProt Q9BYF1); test: BLI; ForteBio Octet QKe; ACE2-Fc (10 µg/mL) immobilized on Protein A biosensors; 2-fold serial dilutions of S-Trimer (22.5–36 µg/mL in PBS); KD by steady state analysis, 1:1 binding model
[3] = molecular target: S-Trimer (ectodomain of wild-type SARS-CoV-2 Spike protein fused to Trimer-Tag) (SARS-CoV-2 | human) (UniProt P0DTC2); test: SDS-PAGE under non-reducing and reducing conditions

ACE2-Fc (soluble human ACE2 fused to human IgG Fc) (human), sequence (Q9BYF1 18-738): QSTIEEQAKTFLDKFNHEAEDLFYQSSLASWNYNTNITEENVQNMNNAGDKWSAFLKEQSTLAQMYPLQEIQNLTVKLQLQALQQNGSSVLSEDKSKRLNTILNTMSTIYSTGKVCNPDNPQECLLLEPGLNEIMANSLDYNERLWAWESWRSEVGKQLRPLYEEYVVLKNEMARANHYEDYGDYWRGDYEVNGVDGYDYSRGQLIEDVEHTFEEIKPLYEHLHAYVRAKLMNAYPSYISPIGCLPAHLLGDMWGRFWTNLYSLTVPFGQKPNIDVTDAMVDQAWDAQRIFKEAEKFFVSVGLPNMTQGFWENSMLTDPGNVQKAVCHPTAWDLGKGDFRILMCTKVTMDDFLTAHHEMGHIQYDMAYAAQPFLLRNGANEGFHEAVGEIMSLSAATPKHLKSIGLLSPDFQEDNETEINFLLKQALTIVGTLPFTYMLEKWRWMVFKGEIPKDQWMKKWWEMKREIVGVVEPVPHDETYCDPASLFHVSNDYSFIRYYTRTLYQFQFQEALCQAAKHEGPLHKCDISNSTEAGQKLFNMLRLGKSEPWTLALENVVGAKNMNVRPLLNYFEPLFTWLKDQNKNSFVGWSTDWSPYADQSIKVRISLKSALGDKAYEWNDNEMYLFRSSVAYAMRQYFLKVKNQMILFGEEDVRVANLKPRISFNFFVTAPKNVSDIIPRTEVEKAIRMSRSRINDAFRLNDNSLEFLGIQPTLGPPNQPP

S-Trimer (ectodomain of wild-type SARS-CoV-2 Spike protein fused to Trimer-Tag) (from UniProt P0DTC2;P02452)
stoichiometry N [1]: 3 | Kd [2]: 1.33 nM | stoichiometry N [3]: 3
